Patent US20110059888A1
[ ]: non-standard residue; d: D form. Phe(3-Me) = Cc1cccc(C[C@H](N)C(=O)O)c1; Phe(4-Me) = Cc1ccc(C[C@H](N)C(=O)O)cc1; Phe(2-Me) = Cc1ccccc1C[C@H](N)C(=O)O; Arg(Me) = CNC(=N)NCCC[C@H](N)C(=O)O; Dap(CONH2) = NC(=O)NC[C@H](N)C(=O)O; Ala(cPr) = N[C@@H](CC1CC1)C(=O)O; Hyp = O=C(O)[C@@H]1C[C@@H](O)CN1; αMeF = C[C@](N)(Cc1ccccc1)C(=O)O; Cha = N[C@@H](CC1CCCCC1)C(=O)O

B1: des(1)-Ac-[D-Tyr2,Glu3,Thr5,Cha6,Ala(cPr)8,Arg(Me)9,Trp10]MS10 (peptide)
peptide: Ac-[dY]ENT[Cha]G[Ala(cPr)][Arg(Me)]W-NH2
SMILES: CNC(=N)NCCC[C@H](NC(=O)[C@H](CC1CC1)NC(=O)CNC(=O)[C@H](CC1CCCCC1)NC(=O)[C@@H](NC(=O)[C@H](CC(N)=O)NC(=O)[C@H](CCC(=O)O)NC(=O)[C@@H](Cc1ccc(O)cc1)NC(C)=O)[C@@H](C)O)C(=O)N[C@@H](Cc1c[nH]c2ccccc12)C(N)=O
B2: des(1)-Ac-[D-Tyr2,Hyp3,Alb4,Thr5,Arg(Me)9,Trp10]MS10 (peptide)
peptide: Ac-[dY][Hyp][Dap(CONH2)]TFGL[Arg(Me)]W-NH2
SMILES: CNC(=N)NCCC[C@H](NC(=O)[C@H](CC(C)C)NC(=O)CNC(=O)[C@H](Cc1ccccc1)NC(=O)[C@@H](NC(=O)[C@H](CNC(N)=O)NC(=O)[C@@H]1C[C@@H](O)CN1C(=O)[C@@H](Cc1ccc(O)cc1)NC(C)=O)[C@@H](C)O)C(=O)N[C@@H](Cc1c[nH]c2ccccc12)C(N)=O
B3: des(1)-Ac-[D-Tyr2,Hyp3,Thr5,αMePhe6,Arg(Me)9,Trp10]MS10 (peptide)
peptide: Ac-[dY][Hyp]NT[αMeF]GL[Arg(Me)]W-NH2
SMILES: CNC(=N)NCCC[C@H](NC(=O)[C@H](CC(C)C)NC(=O)CNC(=O)[C@](C)(Cc1ccccc1)NC(=O)[C@@H](NC(=O)[C@H](CC(N)=O)NC(=O)[C@@H]1C[C@@H](O)CN1C(=O)[C@@H](Cc1ccc(O)cc1)NC(C)=O)[C@@H](C)O)C(=O)N[C@@H](Cc1c[nH]c2ccccc12)C(N)=O

Target: human OT7T175 (metastin receptor) (human) (UniProt Q969F8)
Experiment: cell-based or functional assay

Chain of UniProt Q969F8 (Q969F8 whole entry L364H): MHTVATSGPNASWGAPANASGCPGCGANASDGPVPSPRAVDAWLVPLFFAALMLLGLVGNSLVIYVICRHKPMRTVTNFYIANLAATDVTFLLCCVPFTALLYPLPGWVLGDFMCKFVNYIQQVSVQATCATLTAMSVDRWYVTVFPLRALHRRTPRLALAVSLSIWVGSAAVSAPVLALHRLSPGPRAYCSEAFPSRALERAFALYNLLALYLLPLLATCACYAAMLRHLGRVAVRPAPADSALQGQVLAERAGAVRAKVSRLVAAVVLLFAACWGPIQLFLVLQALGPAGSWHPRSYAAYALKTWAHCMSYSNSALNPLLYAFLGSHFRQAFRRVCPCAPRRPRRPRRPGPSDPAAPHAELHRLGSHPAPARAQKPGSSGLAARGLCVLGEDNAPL

Binder | Specific Activity (EC50 of test compound based on EC50 of Metastin (45-54); intracellular calcium, FLIPR) (ratio to EC50 of Metastin (45-54))
B1 | 0.4
Ac-[dY][Hyp]NTFGL[Arg(Me)]W-NH2 (also: Phe5-Gly6 amide replaced by (R)CHOH-CH2) [des(1)-Ac-[D-Tyr2,Hyp3,Thr5,Phe6Ψ((R)CHOH-CH2)Gly7,Arg(Me)9,Trp10]MS10] | 0.8
Ac-[dY][Hyp]NT[Cha]G[Ala(cPr)][Arg(Me)]W-NH2 [des(1)-Ac-[D-Tyr2,Hyp3,Thr5,Cha6,Ala(cPr)8,Arg(Me)9,Trp10]MS10] | 0.5
Ac-[dY][Hyp]NT[Phe(3-Me)]GL[Arg(Me)]W-NH2 [des(1)-Ac-[D-Tyr2,Hyp3,Thr5,Phe(3Me)6,Arg(Me)9,Trp10]MS10] | 0.8
B2 | 0.5
Ac-[dY][Hyp]NT[Phe(4-Me)]GL[Arg(Me)]W-NH2 [des(1)-Ac-[D-Tyr2,Hyp3,Thr5,Phe(4Me)6,Arg(Me)9,Trp10]MS10] | 0.9
Ac-[dY][Hyp]NT[Cha]GL[Arg(Me)]W-NH2 (also: Gly6-Leu7 amide replaced by (E)CH=CH) [des(1)-Ac-[D-Tyr2,Hyp3,Thr5,Cha6,Gly7Ψ((E)CH═CH)Leu8,Arg(Me)9,Trp10]MS10] | 0.6
Ac-[dY][Hyp]NTFGL[Arg(Me)]W-NH2 (also: Gly6-Leu7 amide replaced by (E)CH=CH) [des(1)-Ac-[D-Tyr2,Hyp3,Thr5,Gly7Ψ((E)CH═CH)Leu8,Arg(Me)9,Trp10]MS10] | 0.6
Ac-[dY][Hyp]NTFAL[Arg(Me)]W-NH2 [des(1)-Ac-[D-Tyr2,Hyp3,Thr5,Ala7,Arg(Me)9,Trp10]MS10] | 0.5
Ac-[dY][Hyp]NTFGL[Arg(Me)]W-NH2 (also: Gly6-Leu7 amide replaced by CH2CH2) [des(1)-Ac-[D-Tyr2,Hyp3,Thr5,Gly7Ψ(CH2CH2)Leu8,Arg(Me)9,Trp10]MS10] | 0.8
B3 | 3.8
Ac-[dY][Hyp]NT[Phe(2-Me)]GL[Arg(Me)]W-NH2 [des(1)-Ac-[D-Tyr2,Hyp3,Thr5,Phe(2Me)6,Arg(Me)9,Trp10]MS10] | 0.7
